From patent publication US20060041106A1

Target: Fas/Apo-1 receptor (human) (UniProt P25445)
Assay: cell-based or functional assay

Sequence of UniProt P25445 (P25445 26-335): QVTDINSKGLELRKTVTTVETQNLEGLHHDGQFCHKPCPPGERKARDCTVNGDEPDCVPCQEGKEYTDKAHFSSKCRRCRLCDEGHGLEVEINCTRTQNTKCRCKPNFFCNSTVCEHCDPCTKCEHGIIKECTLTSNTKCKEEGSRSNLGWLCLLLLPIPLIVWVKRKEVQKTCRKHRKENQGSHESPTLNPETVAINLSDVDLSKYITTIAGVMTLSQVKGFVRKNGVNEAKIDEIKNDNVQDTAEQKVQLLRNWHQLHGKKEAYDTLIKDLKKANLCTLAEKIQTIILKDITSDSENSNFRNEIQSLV

% apoptotic cells, 9D cells, CH11 1 ug/ml, 24 h (control 22.5): 90.8%
% apoptotic cells, Jurkat cells, CH11 1 ug/ml, 24 h (control 5.9): 18.1%
% apoptotic cells, Raji cells, CH11 1 ug/ml, 24 h (control 35.9): 83.7%
Substance: anti-Apo-1 monoclonal antibody, CH11
